According to patent publication US20170129954A1 (PROTHENA BIOSCIENCES, published 2017):

Target: T1, MCAM Y318A mutant, purified protein from a stable cell line (human, UniProt P43121 24-559, limits assumed)
T1 chain: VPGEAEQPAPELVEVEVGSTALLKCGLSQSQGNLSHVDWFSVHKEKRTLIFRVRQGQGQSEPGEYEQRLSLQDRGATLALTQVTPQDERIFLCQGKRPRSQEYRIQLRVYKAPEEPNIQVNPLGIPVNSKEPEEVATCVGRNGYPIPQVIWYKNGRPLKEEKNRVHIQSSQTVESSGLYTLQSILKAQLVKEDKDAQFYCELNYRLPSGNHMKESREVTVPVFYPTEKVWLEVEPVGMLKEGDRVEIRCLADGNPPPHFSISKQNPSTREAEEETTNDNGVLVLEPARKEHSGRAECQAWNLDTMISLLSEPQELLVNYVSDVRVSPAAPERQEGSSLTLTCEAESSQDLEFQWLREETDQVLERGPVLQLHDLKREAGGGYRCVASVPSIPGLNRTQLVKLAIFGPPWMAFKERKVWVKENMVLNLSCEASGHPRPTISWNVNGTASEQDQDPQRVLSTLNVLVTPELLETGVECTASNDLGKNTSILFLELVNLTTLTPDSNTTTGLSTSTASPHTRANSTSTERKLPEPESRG
Experiment: ForteBio BLI with purified protein
Procedure: To further confirm the data, stable cell lines expressing I141A, P145V, D216A and Y318A respectively were generated. Fortebio assays were performed with the purified proteins as described above. The control ABX-MA1 antibody bound to wild type MCAM and the MCAM mutants.

binding result: no binding
B1: mouse anti-human MCAM monoclonal antibody clone 1749.1.3 (antibody, V domains shown)
VH: DVKLVESGGDLVKPGGSLKLSCAASGFTFSSYIMSWVRQTPEKRLEWVATISSGGSSTYYPDSVKGRFTISRDNAKNTLYLQMSSLKSEDTAMYYCTRDDDYDVKVFAYWGQGTLVTVSA
VL: DIVMSQSPSSLAVSAGEKVTMNCKSSRSLLNSRIRKNYLAWYQQKPGQSPKLLIYWASTRESGVPDRFTGSGSGTDFTLTISSVQAEDLAVYYCKQSYNLLTFGAGTKLELK
notes: Mouse hybridoma monoclonal antibody; also called m1749
